In patent US20090208447A1 one finds IC50 for the inhibition of CTLs (IFN-gamma ELISPOT, MART-1 specific T cell clone KA/C5 with Mel 624 / Mel 526 target cells) data, which are given here for three molecules.

Sequences and labels used below:
B1: soluble high affinity c50 ILT-like polypeptide monomer, Q8NHL6 25-221 (receptor)
chain: MHLPKPTLWAEPGSVITMDQPVTLRCQGGQETQEYRLYREKKTAPWITRIPQELVKKGQFPIPSITWEHAGRYRCYYGSDTSQWSASSDPLELVVTGVYIKPTLSAQPSPVVNSGGNVTLQCDSQVAFDGFILCKEGEDEHPQCLNSQPHARGSSRAIFSVGPVSPSRRWWYRCYAYDSNSPYEWSLPSDLLELDVDG
B2: soluble high affinity c50 ILT-like polypeptide dimer, Q8NHL6 25-217 (receptor)
chain: MHLPKPTLWAEPGSVITMDQPVTLRCQGGQETQEYRLYREKKTAPWITRIPQELVKKGQFPIPSITWEHAGRYRCYYGSDTSQWSASSDPLELVVTGVYIKPTLSAQPSPVVNSGGNVTLQCDSQVAFDGFILCKEGEDEHPQCLNSQPHARGSSRAIFSVGPVSPSRRWWYRCYAYDSNSPYEWSLPSDLLELDVDGC
modifications: here or on the partner: additional C-terminal cysteine linked through maleimide to MAL-PEG-MAL, MW 3.4 KD
B3: soluble high affinity c50 ILT-like polypeptide tetramer, Q8NHL6 25-217 (receptor)
chain: B2 chain
modifications: here or on the partner: additional C-terminal cysteine linked through maleimide to 4arm MAL-PEG, MW 20 KD

For the test, the target named is Class I MHC. As to the kind of experiment: cell-based or functional assay.
B1 had an IC50 for the inhibition of CTLs (IFN-gamma ELISPOT, MART-1 specific T cell clone KA/C5 with Mel 624 / Mel 526 target cells) of 0.8 µM.
In the case of B2, the IC50 for the inhibition of CTLs (IFN-gamma ELISPOT, MART-1 specific T cell clone KA/C5 with Mel 624 / Mel 526 target cells) stood at 0.0162 µM.
The molecule B3 showed an IC50 for the inhibition of CTLs (IFN-gamma ELISPOT, MART-1 specific T cell clone KA/C5 with Mel 624 / Mel 526 target cells) of 0.0007 µM.
